Assay results from the DeepSol protein solubility set.

Test: soluble on expression in E. coli; label from the status in PepcDB or PDB records

Soluble on expression in E. coli, not soluble:
MGSDKIHHHHHHMGDAGGAGGNNMNIKQAKNEVKNTVKAYLSKDAHGEYVIPQIRQRPMLLIGPPGVGKTQIMEQIARECKIGLVAYTITHHTRQSAVGLPFIKEREYDGKSYSVTEYTMSEIIASVYEKMEATGLKEGILFIDEINCVSETLAPTMLQFLQCKTFGNQAVPKGWVIVAAGNPPEYNKSVRDFDMVTLDRVRYISIEADYQVWKEYARDVHIHDALLSYLELHPNNFYRVETDVDGMNFVTARGWEDLSSLLKVYEAGELAVTEEVIGEFIHHPDIAEDVYAYLEIYRKYNEDYGISDILSGNVKKSVYKRVFDADFDERITVVNLLLSGLTVVFSDVARERKMVQLWYEFLKEYRKSQRSTEEQHALYNSAVEQFSKNMEILKESSLILPKEYYIRQDVLKHIKGDFDTVMDDFTEESEKLSTMEDAAGEKLNHAFDFVEDVFSDDQEMLVFVTELTITPEISSFLAENECEKFDIYNEKLMVGSNRTRLLKELER, MTRDEMRYMLETEGVLENEELEMLQGVFSLDTKVAREVMVPRTDAFMVDIQDDVQENINLILGENYSRIPVYSEDKDKIVGILHTKTLLKAARNLGFENIELGAIIQEPLFVPETIFIDDLLYELKRTQNQMAILLDEYGGVVGLATLEDLLEEIVGEID, MMKNMARKNQKAPWEEEEEIIWVSRTELKNDMLALQKLGEELVELKPSALAKFPLPEDLAEAIKDAQRFKNEARRRQLQYIGKLMRHIDPEPLQAALDKLRNKHSQTTALLHKLEQLRDRIVAEGDSAIEVAMEQYPEADRQRLRLLARQASKEKAGNKPPKSSREIFQLLKEAMLAKQEIEEESEDDLDSAE, MKTYDVVVVGAGMLGIAHAWAAARRGLSVAVVERSQRAHGATIRNFGQVLVTGQAPGVMARHARQSRELWLELAAGAGFHVRANGSLVLARSALEQDVLEEFAAARLQAEGYRAELLSGRELARLFDGRLGHHCAALRGHDDLQIYSREALPAITAYLADRFGVEFLTATLASAVREGVVQTSAGALRGRHAFVCPGHDYLTLAPELFAPLGLQVSCLQMLRVAFETRPFALDRPLLTGLSCVYYGAFSDLPTARTLRESLQRHEPDLLDNGIHLLVSPTPHGELIIGDSHRYGVDALPFNDEQVDCAMLDLAQQALGCRLRVIERWQGVYGAHGPAPFSVLPVDDQTTVAVMHSGVGMTVGLAVGENTVQARLGLEHHHHHH, MGSDKIHHHHHHMQIKEFLISRRSEVVNNFYDNYYTQTDEYKLRLSAGEDEQSIRSLSTASCGMIIDVITGVKERDFENIGKRRFNDKTDIRKIHQHMSEIDKFIINSLLKWKETEDVFYTDADIIQFMLEIKDTLASIQQQLLEGFMQENRNQVMAQRKEIIQLSTRIIPITDSIGVLPIVGSLDDDRGYFMKEKAIESADKLNLDFIVIDFSSAVLKDDFATKHMEDMIQSFKLIGLIPILSGMQPSFAQRTIQVGSNISKLQSFGSLEQALTNLGL, SQLNPTVMISGSSANNHRFDNLVAILNRQSTTHSLLRVQVNEDNSISYSGRIRPNDSQPYIVIGFQNNSDGYANIKRQAKWLEIAMKFLQKRYHFNHFNAFGHSNGGLDWTIYLEKYFNQKSSTIGTLMTVGSPFNFSEKSESNRTQMLTDLIKNRSKLPRDMTVYSIAGTETYNDDGIVPIESVLSGKYVFQKNVHSYTQITVSGNDSEHSDLPTNPQIVQLIQRDILDGRGQKQSSNPVFNNH, MKTENFRSYNQRVYSETLNDGLKITLIPKKDFHSVFAALFVNAGATDQQIVDEKGETIIFPSGTAHFAEHKMFEKKNGDVSEIFSAYGAFSNAYTSQSQTVYYFQGTENIDQSIKLLLQFVQEPYYTEASVAKEQGIIGQEISMYQDMPDWVSSFGLMKNLYRKQPLGEDIAGNIDSIETINADLLYKFHRYFYQPSNLQLKIAGNIDPTGLLALLKQTQARLTRPRINFSRVNRFNAKIPVKKSAEQNMPVALPLLAAGIKGSGNLPDIDTAIDLSFSSDLILDIYFSDSSDWYLRNYNQGFLNDDFSAQADVGRNYNFITFTGHSENKELFKEIYSQLKNISYSQELEKEFQWQKKASLGELSMSLDQLENNVFTIADVFNTDVNIFRVIEKLRELTYRKAVNLFESYYNLDSFSSFCVNPVE, MGSDKIHHHHHHMKVKDLLNITDEDELKKYRVFRALSRFNYFPNQKQAIGELPDCFTTSSLTPEVCLRLLSGGIDNKRKNTGFAPVEYKSTRYNNIPRVLSLVHPVAHAQLCKHIYENWQDIEYISANTISRVRPEFYEVDKRIVVMNYDDPIVKDRKFNDITFGKKYIVNADIASCFDSIYSHSIPWAIKGYEFAKNNRGENEWFNQFDKFLRTTKRCETNGMPIGPATSSICLEIILARVDSRLHDLGFEHERYVDDFCCYCSTKEQADEFIIKLSELLAEYRLSLNLRKTTIIELPIASTDDWIVELNSLCIDRYNADGDLVLIGAKEAINIINKAVFLSQSHKDGSVIKFAVGFLVKKLADTAYQDVFECLLSLSFHYPILIPYLSILLGRGNLEAQHYVDKFQMIIEENALHKRSDGMAWPLHIFREHNIEPTQEIVDRVLETKDCVAITILQDICPDNENIRQFVVDISNDLDIKKDEYWLLLYQSYLLGHINNPYRDRCFIVLKDYGVNFFKTDSRTKFEMRCDNVGAVWAFKELEEIKQPQAKAVNI

Soluble on expression in E. coli, soluble:
MAMWVFGYGSLIWKTGFPFDESLPGFIKGYRRVFHQGSTDHRGTPDFPGRTVTLEAAHEEHLEVREKQYDQKEYLDFFTDSNASEPAVAGVMVYIASPDKKSNNNYLGPAPLEDIAKQIVKAKGPSGPNRDYLFNLEEALAQLGFKDKHVTDLANQVRHILSESEELDIDATAATANNV, MSLTIFTKERKLLLAVESSCDETSVAVIEDGDKILSNIVASQIKSHQRFGGVVPEVASRHHVEQVTICIEEALTEAKVTPEELSGVAVTYGPGLVGALLIGLSAAKAFAWAHQLPLIPVNHMAGHIYAARFVAPLEFPLMALLVSGGHTELVYMKEDGSFEIVGETRDDAAGEAYDKVGRVLGLPYPSGKEIDALAHEGTDTYQFPRAMLKEDNYDFSFSGLKSAFINTVHNAEQRGEALSTKDLAASFQASVVEVLVTKTIRACQEYPVKQLLIAGGVAANQGLREAMRHAISEQLPAVTLLIPPLKLCGDNAAMIGAAAFIEAEKNHFASYNLNAEPGVSFMTISEEGEGHHHHHH, MNDGKISILVLGADKAQGGQSRTDSIMVVQYDFINKKMKMMSVMRDIYADIPGYGKHKINSAYALGGPKLLRKTLDKNLGINPEYYAVVDFTGFEKMIDELMPEGVPINVEKDMSKNIGVSLKKGNHRLNGKELLGYARFRHDPEGDFGRVRRQQQVMQTLKKEMVNFRTVVKLPKVAGILRGYVNTNIPDSGIFQTGLSFGIRGEKDVKSLTVPIKNSYEDVNTNTDGSALQINKNTNKQAIKDFLDEDLEHHHHHH, GMRLPLNQRVAILLHEGTTGTIGKTGLALLRYSEAPIVAVIDRNCAGQSLREITGIYRYVPIVKSVEAALEYKPQVLVIGIAPKGGGIPDDYWIELKTALQAGMSLVNGLHTPLANIPDLNALLQPGQLIWDVRKEPANLDVASGAARTLPCRRVLTVGTDMAIGKMSTSLELHWAAKLRGWRSKFLATGQTGVMLEGDGVALDAVRVDFAAGAVEQMVMRYGKNYDILHIEGQGSLLHPGSTATLPLIRGSQPTQLVLVHRAGQTHNGNNPHVPIPPLPEVIRLYETVASGGGAFGTVPVVGIALNTAHLDEYAAKEAIAHTIAETGLPCTDVVRFGADVLLDAVMQN, GPGSMASQPGDALGKIEYWVQYIDCALKHPRPLPAGKHAHRQSLETIPEVAELYHCIYKLYNEEESSVWFREPVNALAQEIFTYYDVVKSPMSLRHILDNIVKGDTYSTALQVMEDVELIWKNCITFNGANSLLATEAGKCRSALDRIRRAYQDDQRITVEEAERLFRVISSMQEQQLIDNIAEYLRRDDPTSIDETGAVNFDMLKRKHFRNLERIVDNYSKSRTRS, MGHHHHHHSHMEHPLEMPICAFQLPDLTVYNEDFRSFIERDLIEQSMLVALEQAGRLNWWVSVDPTSQRLLPLATTGDGNCLLHAASLGMWGFHDRDLMLRKALYALMEKGVEKEALKRRWRWQQTQQNKESGLVYTEDEWQKEWNELIKLASSEPRMHLGTNGANCGGVESSEEPVYESLEEFHVFVLAHVLRRPIVVVADTMLRDSGGEAFAPIPFGGIYLPLEVPASQCHRSPLVLAYDQAHFSALVSMEQKENTKEQAVIPLTDSEYKLLPLHFAVDPGKGWEWGKDDSDNVRLASVILSLEVKLHLLHSYMNVKWIPLSS
